Biological target: 2F5 MAb (human)
Assay: ELISA

B1: 2F5–17 αIM (designed binder)
chain: VSDVPRDLEVVAATPTSLLISWPYDKWAYRYYRITYGETGGNSPVQEFTVPGSKSTATISGLKPGVDYTITVYAVTRWYWVPHYSKPISINYRT
modifications: biotin on the birA site
With B1 the “fold lower affinity than the MPER peptide” value was about 10 fold.

From paper PMC4090420 (Biochemistry, 2013)
